Data: publication PMC7953810, “Divergent CPEB prion-like domains reveal different assembly mechanisms for a generic amyloid-like fold” (BMC Biology, 2021)

T1: peptide DQ, ApCPEB PLD residues 121-140 with an N-terminal dansyl moiety (Aplysia californica, dansyl moiety (D*) on the N-terminus)
T1 construct: source: synthetic peptide, bought: GenScript
T1 peptide: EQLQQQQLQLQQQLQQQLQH

B1: peptide QW, ApCPEB PLD residues 121-140 with a C-terminal Trp (peptide)
peptide: EQLQQQQLQLQQQLQQQLQHW
notes: Trp added at the C-terminus (excited at 280 nm as the fluorescence donor); Wild-type stretch with one added Trp as a fluorescence probe; source: synthetic peptide, bought: GenScript
B2: peptide WQ, ApCPEB PLD residues 121-140 with an N-terminal Trp (peptide)
peptide: WEQLQQQQLQLQQQLQQQLQH
notes: Trp added at the N-terminus (excited at 280 nm as the fluorescence donor); Wild-type stretch with one added Trp as a fluorescence probe; source: synthetic peptide, bought: GenScript

Target: T1, peptide DQ, ApCPEB PLD residues 121-140 …
Test: FRET or BRET + other: 1D 1H NMR; 20-mer peptides at 5 °C in 10 mM KH2PO4; excitation of Trp at 280 nm, dansyl emission at 530-550 nm; 1D 1H NMR with DSS as concentration standard
Conditions: both partners purified

Binder	binding result
B1	binds
B2	binds
